No end group written: not given here.
Columns and labels:
[1] = molecular target: T1, hCRF-RA1 (CRF receptor encoded by clone hctCRFR) (Homo sapiens, UniProt P34998); assay: Competitive radioreceptor assay: displacement of 125I-(Nle21,Tyr32)-ovine CRF from membranes of COSM6 cells transfected with hctCRFR; type: binding; settings: receptor of SEQ ID NO:2
T1 construct: expressed in transfected cells; host or cells: COSM6 cells, DEAE-dextran transient transfection of clone hctCRFR in pcDNA1
T1 sequence (P34998 24-415): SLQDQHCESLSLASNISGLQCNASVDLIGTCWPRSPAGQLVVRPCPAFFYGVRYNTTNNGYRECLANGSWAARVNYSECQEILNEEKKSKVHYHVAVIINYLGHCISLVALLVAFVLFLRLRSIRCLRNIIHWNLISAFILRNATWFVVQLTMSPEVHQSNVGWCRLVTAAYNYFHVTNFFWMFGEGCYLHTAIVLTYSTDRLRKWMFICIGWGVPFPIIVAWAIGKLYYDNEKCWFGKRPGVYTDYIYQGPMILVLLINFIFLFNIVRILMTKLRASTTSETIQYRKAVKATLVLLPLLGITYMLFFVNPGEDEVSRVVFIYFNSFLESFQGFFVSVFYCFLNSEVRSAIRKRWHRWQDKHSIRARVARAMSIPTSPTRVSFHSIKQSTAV
Experimental: Approximately 10^6 COSM6 cells were transfected with either […] or […] (rat gonadotropin releasing hormone receptor) by the DEAE-dextran method and grown in 150 mm tissue culture dishes. Two days after transfection, the cells were washed twice with 1 ml HDB and were detached by incubation for 15 min at room temperature in 0.5 mM EDTA in HDB. After pelleting, the cells were washed twice with HDB, and then homogenized in 5% sucrose (16 ml/150 mm dish). […] The reaction was terminated by filtration through GF/C (Whatman) filters, prewetted with 1%BSA, 10 mM HEPES, pH 7.5. The filters were washed 4 times with 1 ml 0.1% BSA, 50 mM Tris, pH 7.5. Filter-bound radioactivity, indicating the presence of CRF-R:^125 I-([…],Tyr^32)-ovine CRF complex, was determined by g-scintillation counting.

[2] = molecular target: T2, CRF-RA1 (hctCRFR) expressed in COSM6 cells (Homo sapiens, UniProt P34998); assay: CRF-R mediated stimulation of intracellular cAMP in COSM6 cells transfected with hctCRFR; type: cell-based; settings: receptor transfected COSM6 cells
T2 construct: expressed in transfected cells; host or cells: COSM6 cells, DEAE-dextran transient transfection of clone hctCRFR in pcDNA1
T2 sequence (P34998 24-415): T1 sequence (P34998 24-415)
Experimental: To determine the possible linkage of CRF-R to multiple signaling pathways, the ability of CRF-R to stimulate cAMP formation in CRF-R-expressing COSM6 cells was investigated. To ensure that changes in cAMP levels were not influenced by alterations in cAMP phosphodiesterase, the phosphodiesterase inhibitor 3-isobutyl-1-methylxanthine (IBMX) was added to the medium. COSM6 cells were trypsinized 24 hrs following transfection with either ctCRFR or rGnRHR in 150 mm dishes and were replated in 24-well plates (Costar) and allowed to express the receptors for another 24 hrs in 10% FCS, DMEM.
On the day of the stimulation, the medium was changed to 0.1 w FCS, DMEM at least 2 hrs before a 30 minute preincubation with 0.1 mM IBMX or medium. Test ligands (i.e., r/h CRF, sauvagine, salmon calcitonin, Vasoactive intestinal peptide (VIP), growth hormone releasing factor (GRF) were added in 0.1% BSA, 0.1% FCS, DMEM, and stimulation was carried out for 30 minutes at 37° C., 7.5% CO2. The medium was removed and the cells were extracted overnight with 1 ml ice-cold 95% EtOH-0.1M HCl at −20° C. Cyclic AMP (cAMP) levels were determined in duplicate from triplicate wells by RIA kit (Biomedical Technologies, Stoughton, Mass.) following the manufacturer's protocol.

[3] = molecular target: T3, CRF-RB1 expressed in COSM6 cells (Mus musculus, UniProt Q60748); assay: CRF-RB1 mediated stimulation of intracellular cAMP in COSM6 cells transfected with pCRF-RB1; type: cell-based; settings: for stimulation of intracellular cAMP accumulation (in words): FIG. 5
T3 construct: The full-length CRF-RB1 receptor cDNA was subcloned into the expression vector pcDNA1; expressed in transfected cells; host or cells: COSM6 cells, DEAE-dextran transient transfection of pCRF-RB1
T3 sequence (Q60748 1-431 isoform Q60748-2): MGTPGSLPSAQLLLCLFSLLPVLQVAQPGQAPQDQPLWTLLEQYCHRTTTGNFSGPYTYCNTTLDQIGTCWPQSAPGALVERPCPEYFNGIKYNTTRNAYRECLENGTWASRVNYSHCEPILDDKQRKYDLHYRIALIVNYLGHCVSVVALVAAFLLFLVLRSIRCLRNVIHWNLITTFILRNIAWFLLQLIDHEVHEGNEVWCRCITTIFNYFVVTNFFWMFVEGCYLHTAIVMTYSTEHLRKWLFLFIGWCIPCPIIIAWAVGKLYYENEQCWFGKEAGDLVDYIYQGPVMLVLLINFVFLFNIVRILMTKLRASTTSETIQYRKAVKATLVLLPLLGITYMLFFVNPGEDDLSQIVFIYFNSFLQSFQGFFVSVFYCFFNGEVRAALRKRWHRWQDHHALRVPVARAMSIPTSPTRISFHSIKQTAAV
Experimental: Using methods described in Example 4, the ability of CRF-RB1 to stimulate cAMP formation in CRF-RB1-expressing COSM6 cells was investigated. The plasmid pCRF-RB1 was transfected into COSM6 cells. One day later, the cells were trypsinized and replated in 10% FBS, DMEM into 24 or 48 well COSTAR tissue culture wells, and allowed to grow another 24 hours. The medium was changed to 0.1% FBS, DMEM at least two hours before treatments. The cells were preincubated for 30 minutes with 0.1 mM 3-isobutyl-1-methylxanthine and then exposed to various peptides for 30 minutes at 37° C. Intracellular cAMP was measured in duplicate from triplicate wells using an RIA kit (Biomedical Technologies, Stoughton, Mass.).

CRF-RB1 = molecular target: T4, CRF-RB1 (Mus musculus, UniProt Q60748); assay: Competitive displacement of 125I-(Nle21,Tyr32)-ovine CRF from membranes of COSM6 cells transfected with pCRF-RB1; type: binding; settings: for displacement of bound radioligand (in words): specificity of binding
T4 construct: The full-length CRF-RB1 receptor cDNA was subcloned into the expression vector pcDNA1; expressed in transfected cells; host or cells: COSM6 cells, DEAE-dextran transient transfection of pCRF-RB1
T4 sequence (Q60748 1-431 isoform Q60748-2): as above
Experimental: Approximately 10^6 COSM6 cells were transfected with either hctCRFR or rGnRHR (rat gonadotropin releasing hormone receptor) by the DEAE-dextran method and grown in 150 mm tissue culture dishes. Two days after transfection, the cells were washed twice with 1 ml HDB and were detached by incubation for 15 min at room temperature in 0.5 mM EDTA in HDB. After pelleting, the cells were washed twice with HDB, and then homogenized in 5% sucrose (16 ml/150 mm dish). The homogenate was centrifuged at 600×g for 5 minutes, and the resulting supernatant was centrifuged at 40,000×g for 20 minutes. The resulting pellet (containing crude membranes) was resuspended at 1-4 mg/ml in 10% sucrose, and used in a competitive radioreceptor assay to measure binding to the CRF-R as described in Perrin et al., Endoc., 118:1171 (1986).
The reaction was terminated by filtration through GF/C (Whatman) filters, prewetted with 1%BSA, 10 mM HEPES, pH 7.5. The filters were washed 4 times with 1 ml 0.1% BSA, 50 mM Tris, pH 7.5.
Using the methods described in Example 3, a radioreceptor assay was conducted. Approximately […] of pCRF-RB1 plasmid DNA was transfected into COSM6 cells using the DEAE dextran method. […] In order to calculate a Kd the displacement data were analyzed using the Ligand program of Munson and Rodbard (1980), Anal. Biochem., 107:220-239.

affinity of the receptor for the ligand (in words) [1] | effect on cyclic AMP levels / activity of non-related peptides (in words) [2] | stimulation of intracellular cAMP accumulation (in words) [3] | affinity of the CRF-Rs for the ligand (in words) (CRF-RB1) | Compound | other results
very low affinity |  |  |  | SQEPPISLDLTFHALREVLEMTKADQLAQQAHSNRKLLDIA-NH2 (C-terminus assumed) [[Ala^14]-ovine CRF] | 
high affinity |  | equipotent to CRF | high affinity | NDDPPISIDLTFHLLRNMIEMARIENEREQAGLNRKYLDEV-NH2 (C-terminus assumed) [urotensin] | Ki (CRF-RB1; on CRF-RB): 0.7 ± 0.3 nM
 | inactive | do not stimulate |  | GRF: growth hormone releasing factor, non-related peptide (YADAIFTNSYRKVLGQLSARKLLQDIMSRQQGESNQERGA) | displacement of bound radioligand (in words) (CRF-RB1): do not displace

More lines, now with the values behind:

Compound | affinity of the receptor for the ligand (in words) [1] | effect on cyclic AMP levels / activity of non-related peptides (in words) [2] | stimulation of intracellular cAMP accumulation (in words) [3] | affinity of the CRF-Rs for the ligand (in words) (CRF-RB1) | other results
ovine CRF | high affinity |  |  |  | 
salmon calcitonin: non-related peptide |  | inactive |  |  | 
gonadotropin releasing hormone: non-related peptide |  | inactive |  |  | 
VIP: vasoactive intestinal peptide, non-related peptide |  | inactive | do not stimulate |  | displacement of bound radioligand (in words) (CRF-RB1): do not displace
(DPhe^12,Nle^21,38)hCRF(12-41) | high affinity |  |  | high affinity | inhibition of the CRF signal by antagonist (in words) ([3]; 1 mM antagonist): inhibited
CC[C@H](C)[C@H](NC(=O)[C@@H](NC(=O)[C@H](CC(=O)O)NC(=O)[C@H](CC(C)C)NC(=O)[C@H](CC(C)C)NC(=O)[C@H](CC(C)C)NC(=O)[C@H](CCCNC(=N)N)NC(=O)[C@H](CC(N)=O)NC(=O)[C@H](CC(N)=O)NC(=O)[C@H](C)NC(=O)[C@H](C)NC(=O)[C@H](CCC(N)=O)NC(=O)[C@H](CCC(N)=O)NC(=O)[C@H](CCCCN)NC(=O)[C@H](CCC(=O)O)NC(=O)[C@H](CCCCN)NC(=O)[C@H](CCC(=O)O)NC(=O)[C@H](CCC(N)=O)NC(=O)[C@H](CCCCN)NC(=O)[C@H](CCC(=O)O)NC(=O)[C@@H](NC(=O)[C@H](CCC(=O)O)NC(=O)[C@@H](NC(=O)[C@H](CCSC)NC(=O)[C@H](CCCCN)NC(=O)[C@H](CCCNC(=N)N)NC(=O)[C@H](CC(C)C)NC(=O)[C@H](CC(C)C)NC(=O)[C@H](CCC(=O)O)NC(=O)[C@H](CC(C)C)NC(=O)[C@H](CO)NC(=O)[C@H](CC(C)C)NC(=O)[C@H](CC(=O)O)NC(=O)[C@@H](NC(=O)[C@H](CO)NC(=O)[C@@H](NC(=O)[C@@H]1CCCN1C(=O)[C@@H]1CCCN1C(=O)CNC(=O)[C@@H]1CCC(=O)N1)[C@@H](C)CC)[C@@H](C)CC)[C@@H](C)CC)[C@@H](C)CC)[C@@H](C)O)C(N)=O [sauvagine] |  |  | equipotent to CRF | high affinity | 

Source: US6638905B2, “Cloning and recombinant production of CFR receptor(s)” (priority 1993, dated 2003)
